Data on 1 molecule can be found in publication PMC4764573, “A deep proteomics perspective on CRM1-mediated nuclear export and nucleocytoplasmic partitioning” (eLife, 2015).

For the assay, the target named is mmCRM1 (mouse CRM1), in solution in the direct binding assay (mouse, UniProt Q6P5F9 1-1071). As to the kind of experiment: pull-down; 250 pmoles His14-ZZ-bdSUMO tagged candidate on 20 μl anti-ZZ beads; 300 pmoles mmCRM1 with or without 1500 pmoles RanGTP (hsRanQ69L^5-180) in 500 µl; 3 hr at 4°C; elution by bdSENP1 protease; SDS-PAGE and Coomassie-staining. The conditions noted are these: both partners purified.
Sequence of mmCRM1 (mouse CRM1), in solution in the direct binding assay (Q6P5F9 whole entry): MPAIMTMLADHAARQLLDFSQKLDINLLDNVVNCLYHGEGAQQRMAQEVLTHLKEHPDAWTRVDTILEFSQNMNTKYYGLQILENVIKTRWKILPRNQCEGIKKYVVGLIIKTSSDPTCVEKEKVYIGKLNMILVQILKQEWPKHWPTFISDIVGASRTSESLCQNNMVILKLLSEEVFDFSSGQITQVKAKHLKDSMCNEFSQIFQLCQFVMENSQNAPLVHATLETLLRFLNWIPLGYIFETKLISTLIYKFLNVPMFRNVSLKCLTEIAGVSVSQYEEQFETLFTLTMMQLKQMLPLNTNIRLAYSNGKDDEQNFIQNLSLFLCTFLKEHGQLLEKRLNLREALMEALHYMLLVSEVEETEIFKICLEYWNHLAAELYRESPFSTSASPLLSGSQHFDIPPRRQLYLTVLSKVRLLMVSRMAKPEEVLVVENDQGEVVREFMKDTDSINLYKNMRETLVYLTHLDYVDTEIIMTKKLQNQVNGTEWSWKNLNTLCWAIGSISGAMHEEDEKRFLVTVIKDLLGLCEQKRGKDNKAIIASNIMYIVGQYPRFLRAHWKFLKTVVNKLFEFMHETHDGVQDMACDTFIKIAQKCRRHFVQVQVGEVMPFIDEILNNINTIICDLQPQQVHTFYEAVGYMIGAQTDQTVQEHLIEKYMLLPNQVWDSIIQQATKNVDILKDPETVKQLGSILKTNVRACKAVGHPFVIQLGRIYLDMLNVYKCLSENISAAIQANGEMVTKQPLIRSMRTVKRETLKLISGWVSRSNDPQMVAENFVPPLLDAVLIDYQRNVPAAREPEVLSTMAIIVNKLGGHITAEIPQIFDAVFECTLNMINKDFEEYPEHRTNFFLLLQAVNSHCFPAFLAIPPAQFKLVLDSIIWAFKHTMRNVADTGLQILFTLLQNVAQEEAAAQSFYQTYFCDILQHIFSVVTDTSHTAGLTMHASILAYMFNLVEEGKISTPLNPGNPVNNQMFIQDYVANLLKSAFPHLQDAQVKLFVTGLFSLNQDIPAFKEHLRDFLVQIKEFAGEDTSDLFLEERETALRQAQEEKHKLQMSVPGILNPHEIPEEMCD

B1: H14-ZZ-Sumo tagged ARP2/3 1b (natural protein)
chain: not shown
notes: subunit 1b of the ARP2/3 complex, Xenopus; see Supplementary file 6; also called subunit 1b of the ARP2/3 complex; source: E. coli, purified (Ni2+ chelate chromatography, imidazole elution)
As for B1, the binding result is given as “binds”.
